These results are taken from US20120020961A1 (INSTITUT NATIONAL DE LA SANTE ET DE LA RECHERCHE MEDICALE …, published 2012).

For this experiment, the target named is T1, mature human progastrin (human, UniProt P01350 22-101).
T1 construct: In the spheroid assays the progastrin is made by the human liver cancer cells themselves; also called hPG; PG
T1 sequence: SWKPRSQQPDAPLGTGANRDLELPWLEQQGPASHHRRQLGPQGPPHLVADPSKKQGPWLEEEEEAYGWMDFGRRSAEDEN
The experiment is described as follows: measured KD; method not named at the table (Example 4 describes Proteon SPR, antibody captured by anti-mouse IgG, hPG injected).

Values joined by “and” are separate entries in the source; they are usually repeats but may differ in a detail not shown here. Equal entries are not always repeated.

B1: murine anti-hPG MAb13 (antibody, V domains shown)
VH: EVQLVESGGGLVQPGGSLKLSCAASGFIFSSYGMSWVRQSPDRRLELVASINTFGDRTYYPDSVKGRFTISRDNAKNTLYLQMTSLKSEDTAIYYCARGTGTYWGQGTTLTVSS
VL: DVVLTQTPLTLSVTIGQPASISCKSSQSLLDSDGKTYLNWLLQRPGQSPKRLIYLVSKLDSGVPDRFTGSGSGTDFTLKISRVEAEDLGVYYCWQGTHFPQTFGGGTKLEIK
notes: Murine C-terminal anti-hPG monoclonal antibody, immunogen C1; also called hybridoma 2C6C3C7
Regarding B1, the equilibrium dissociation constant (Kd) is 0.6 nM and 0.612 nM.

B2: murine anti-hPG MAb8 (antibody, V domains shown)
VH: EVQLVESGGGLVKPGGSLKLSCAASGFTFTTYAMSWVRQTPEKRLEWVATISSGGTYTYYPDSVKGRFTISRDNAKNALYLQMSSLRSEDTAMYYCATQGNYSLDFWGQGTSLTVSS
VL: DIVMTQAASSNPVTLGTSASISCRSSKSLRHTKGITFLYWYLQKPGQSPQLLIYQMSNLASGVPDRFSSSGSGTDFTLRISRVEAEDLGVYYCAQNLELPLTFGAGTKLELK
notes: Murine C-terminal anti-hPG monoclonal antibody, immunogen C1; also called hybridoma 1C10D3B9
For B2, the equilibrium dissociation constant (Kd) is 0.1 nM and 0.108 nM.

B3: murine anti-hPG MAb16 (antibody, V domains shown)
VH: QVQLQQSGAELVKPGASVKLSCKASGYTFTSYYMYWVKQRPGQGLEWIGEINPSNGGTNFNEKFKSKATLTVDKSSSTAYMQLSSLTSEDSAVYYCTRGGYYPFDYWGQGTTLTVSS
VL: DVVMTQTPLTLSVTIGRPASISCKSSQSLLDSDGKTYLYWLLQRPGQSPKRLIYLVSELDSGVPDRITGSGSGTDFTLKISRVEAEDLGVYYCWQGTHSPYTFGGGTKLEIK
notes: Murine N-terminal anti-hPG monoclonal antibody, immunogen N2; also called hybridoma 1E9D9B6
For the molecule B3, the dissociation constant Kd was 0.2 nM and 0.278 nM.

B4: murine anti-hPG MAb3 (antibody, V domains shown)
VH: EVQLQQSGTVLARPGASVKMSCKASGYIFTSYWVHWVKQRPGQGLEWIGGFYPGNSDSRYNQKFKGKATLTAVTSASTAYMDLSSLTNEDSAVYFCTRRDSPQYWGQGTTLTVSS
VL: DVLMTQTPLSLPVSLGDQASISCRSSQSIVHSNGNTYLEWYLQKPGQSPKLLIYKVSNRFSGVPDRFSGSGSGTDFTLKISRLEAEDLGVYYCFQGSHVPFTFGGGTKLEIK
notes: Murine N-terminal anti-hPG monoclonal antibody, immunogen N2; also called hybridoma 6B5B11C10
For B4, the dissociation constant Kd was 6.4 nM.

B5: murine anti-hPG MAb19 (antibody, V domains shown)
VH: DVQLQESGPGLVKPSQSLSLTCTVTGYSITSDYAWNWIRQFPGNKLEWMGYISFSGYTSYNPSLKSRISVTRDTSRNQFFLQLTSVTTEDTATYYCAREVNYGDSYHFDYWGQGTIVTVSS
VL: QLALTQSSSASFSLGASAKLTCTLSSQHRTYTIEWYQQQSLKPPKYVMEVKKDGSHSTGHGIPDRFSGSSSGADRYLSISNIQPEDEAIYICGVGDAIKGQSVFVFGGGTKVTVL
notes: Murine N-terminal anti-hPG monoclonal antibody, immunogen N2; also called hybridoma 1B3B4F11
With B5, the Kd was 0.7 nM and 0.779 nM.

B6: murine anti-hPG MAb4 (antibody, V domains shown)
VH: QVQLQQSGAELMKPGASVKISCKATGYTFSSSWIEWLKQRPGHGLEWIGEFLPGSGSTDYNEKFKGKATFTADTSSDTAYMLLSSLTSEDSAVYYCATDGNYDWFAYWGQGTLVTVSA
VL: DLVMTQTPLSLPVSLGDQASISCRSSQSLVHSSGVTYLHWYLQKPGQSPKLLIYKVSNRFSGVPDRFSGSGSGTDFTLKISRVEAEDLGVYFCSQSTHVPPTFGSGTKLEIK
notes: Murine N-terminal anti-hPG monoclonal antibody, immunogen N2; also called hybridoma 20D2C3G2
Consider B6, for which the Kd amounted to 3.5 nM.
